The values below come from article PMC13458767, “C-terminal lysine residues localise NLRP10 at lipid droplets and govern NLRP10 oligomer formation” (EMBO Reports, 2026).

Data set [1] concerns the target human NLRP10ΔHD2–tail (aa 4–482), MBP-tagged recombinant protein (human) (UniProt Q86W26). Put plainly: SEC-MALS; MBP-NLRP10 (4–482) at several concentrations; molecular weights determined; no methods told for the SEC-MALS. For orientation: SEC sorts molecules by how far they enter the pores of the column.
Data set [2] deals with the molecule itself. Put plainly: SEC; Superose 6 Increase 10/300 GL or Superdex 200 Increase 10/300 GL; 25 mM Tris pH 7.5, 300 mM NaCl, 5 mM ß-ME, 5% glycerol; peak 1 (void) and peak 2 collected.

Take “human NLRP10ΔHD2–tail (aa 4–482), MBP-tagged recombinant protein (from UniProt Q86W26 4-482) (domain or fragment)”: the stoichiometry N (commonly a count of units in the complex or per binding partner) in data set [1] amounted to 2.

B1: human NLRP10 (aa 4–655), MBP-tev-tagged recombinant protein (natural protein, UniProt Q86W26 4-655, looked up)
chain: AKARKPREALLWALSDLEENDFKKLKFYLRDMTLSEGQPPLARGELEGLIPVDLAELLISKYGEKEAVKVVLKGLKVMNLLELVDQLSHICLHDYREVYREHVRCLEEWQEAGVNGRYNQVLLVAKPSSESPESLACPFPEQELESVTVEALFDSGEKPSLAPSLVVLQGSAGTGKTTLARKMVLDWATGTLYPGRFDYVFYVSCKEVVLLLESKLEQLLFWCCGDNQAPVTEILRQPERLLFILDGFDELQRPFEEKLKKRGLSPKESLLHLLIRRHTLPTCSLLITTRPLALRNLEPLLKQARHVHILGFSEEERARYFSSYFTDEKQADRAFDIVQKNDILYKACQVPGICWVVCSWLQGQMERGKVVLETPRNSTDIFMAYVSTFLPPDDDGGCSELSRHRVLRSLCSLAAEGIQHQRFLFEEAELRKHNLDGPRLAAFLSSNDYQLGLAIKKFYSFRHISFQDFFHAMSYLVKEDQSRLGKESRREVQRLLEVKEQEGNDEMTLTMQFLLDISKKDSFSNLELKFCFRISPCLAQDLKHFKEQMESMKHNRTWDLEFSLYEAKIKNLVKGIQMNNVSFKIKHSNEKKSQSQNLFSVKSSLSHGPKEEQKCPSVHGQKEGKDNIAGTQKEASTGKGRGTEETPKNTYI
notes: MBP is followed by a tev site; no cleavage step is described in the methods; also called NLRP10 (4–655); wild-type NLRP10
B1: the binding result in data set [2] is on record as “binds”.

B2: Walker A mutant human NLRP10 (aa 4–655 K179A), MBP-tev-tagged recombinant protein (natural protein, UniProt Q86W26 4-655, looked up)
chain: AKARKPREALLWALSDLEENDFKKLKFYLRDMTLSEGQPPLARGELEGLIPVDLAELLISKYGEKEAVKVVLKGLKVMNLLELVDQLSHICLHDYREVYREHVRCLEEWQEAGVNGRYNQVLLVAKPSSESPESLACPFPEQELESVTVEALFDSGEKPSLAPSLVVLQGSAGTGATTLARKMVLDWATGTLYPGRFDYVFYVSCKEVVLLLESKLEQLLFWCCGDNQAPVTEILRQPERLLFILDGFDELQRPFEEKLKKRGLSPKESLLHLLIRRHTLPTCSLLITTRPLALRNLEPLLKQARHVHILGFSEEERARYFSSYFTDEKQADRAFDIVQKNDILYKACQVPGICWVVCSWLQGQMERGKVVLETPRNSTDIFMAYVSTFLPPDDDGGCSELSRHRVLRSLCSLAAEGIQHQRFLFEEAELRKHNLDGPRLAAFLSSNDYQLGLAIKKFYSFRHISFQDFFHAMSYLVKEDQSRLGKESRREVQRLLEVKEQEGNDEMTLTMQFLLDISKKDSFSNLELKFCFRISPCLAQDLKHFKEQMESMKHNRTWDLEFSLYEAKIKNLVKGIQMNNVSFKIKHSNEKKSQSQNLFSVKSSLSHGPKEEQKCPSVHGQKEGKDNIAGTQKEASTGKGRGTEETPKNTYI
notes: NLRP10, human, residues 4-655, Walker A mutant K179A; MBP is followed by a tev site; no cleavage step is described in the methods; also called NLRP10 K179A; K179A mutant
Consider B2, for which the binding result in data set [2] was “binds”.
